Legend:
[1] = molecular target: recombinant human BAFF (human) (UniProt Q9Y275); test: cell-based or functional assay
recombinant human APRIL = molecular target: T1, recombinant human APRIL (human, UniProt O75888 105-250, limits assumed); test: cell-based or functional assay
T1 sequence (looked up): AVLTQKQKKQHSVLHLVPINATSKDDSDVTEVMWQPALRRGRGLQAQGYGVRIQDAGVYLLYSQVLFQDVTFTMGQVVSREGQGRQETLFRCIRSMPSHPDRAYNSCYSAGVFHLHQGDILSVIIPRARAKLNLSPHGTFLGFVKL

[2] = molecular target: recombinant human BAFF (human) (UniProt Q9Y275)

Sequence of TACI 30-110-Fc (Fc fusion) (chain): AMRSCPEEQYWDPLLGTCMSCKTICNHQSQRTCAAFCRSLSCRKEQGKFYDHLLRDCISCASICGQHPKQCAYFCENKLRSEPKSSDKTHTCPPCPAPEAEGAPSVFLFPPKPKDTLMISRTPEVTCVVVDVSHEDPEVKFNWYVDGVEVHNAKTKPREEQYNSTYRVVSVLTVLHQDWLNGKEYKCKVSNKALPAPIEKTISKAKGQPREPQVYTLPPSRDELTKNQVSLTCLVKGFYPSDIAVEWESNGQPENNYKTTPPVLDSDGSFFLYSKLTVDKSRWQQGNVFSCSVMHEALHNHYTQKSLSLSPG
Sequence of TACI 13-118-Fc (Fc fusion) (chain): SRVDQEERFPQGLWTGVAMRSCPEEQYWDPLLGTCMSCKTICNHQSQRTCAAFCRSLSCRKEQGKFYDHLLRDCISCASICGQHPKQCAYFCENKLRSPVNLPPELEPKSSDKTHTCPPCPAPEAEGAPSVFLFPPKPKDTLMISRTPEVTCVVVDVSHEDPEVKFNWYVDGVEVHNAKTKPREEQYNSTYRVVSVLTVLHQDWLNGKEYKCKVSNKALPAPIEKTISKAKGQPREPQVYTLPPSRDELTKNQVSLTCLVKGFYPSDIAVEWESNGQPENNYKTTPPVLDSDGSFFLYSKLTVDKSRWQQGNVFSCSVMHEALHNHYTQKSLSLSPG

Substance | BAFF IC50 (pM) [1] [pM] | BAFF IC50 (ΔWT) (fold of WT TACI (68-110)-Fc) [1] | IC50 (nM) APRIL (recombinant human APRIL) [nM] | IC50 APRIL (Δ TACI 30-110) (fold of TACI 30-110) (recombinant human APRIL) | IC50 APRIL (Δ TACI 30-110-Fc) (fold of TACI 30-110-Fc) (recombinant human APRIL) | IC50 (nM) BAFF [1] [nM] | IC50 BAFF (Δ TACI 30-110) (fold of TACI 30-110) [1] | IC50 BAFF (Δ TACI 30-110-Fc) (fold of TACI 30-110-Fc) [1] | IC50 (read off the curve): blockade of human BAFF signalling via TACI (NF-κB luciferase reporter, Jurkat/NF-κB/TACI cells) [2] [µM] | APRIL IC50 (pM) (recombinant human APRIL) | APRIL IC50 (ΔWT) (fold of WT TACI (68-110)-Fc) (recombinant human APRIL)
TACI 13-118-Fc (Fc fusion) | 7900 | 4.26 | 7810 | 1.81 | 2.37 | 8450 | 1.88 | 1.33 |  |  | 
TACI vTD-Fc F78Y, A101D (SEQ ID NO: 185) (Fc fusion) | 1850 | 1 |  |  |  |  |  |  |  | 2020 | 0.16
TACI vTD-Fc F78Y, R84Q (SEQ ID NO: 184) (Fc fusion) | 2260 | 1.22 |  |  |  |  |  |  |  | 2620 | 0.21
TACI vTD-Fc F78Y, Y102D (SEQ ID NO: 186) (Fc fusion) | 1960 | 1.06 |  |  |  |  |  |  |  | 8490 | 0.69
TACI vTD-Fc K77E, A101D (SEQ ID NO: 25) (Fc fusion) | 1960 | 1.06 |  |  |  |  |  |  | 0.0006 | 2040 | 0.17
TACI vTD-Fc K77E, F78Y (SEQ ID NO: 191) (Fc fusion) | 1970 | 1.06 |  |  |  |  |  |  |  | 10100 | 0.82
TACI vTD-Fc K77E, F78Y, R84Q (SEQ ID NO: 182) (Fc fusion) | 2210 | 1.19 |  |  |  |  |  |  |  | 10100 | 0.82
TACI vTD-Fc K77E, R84Q (SEQ ID NO: 24) (Fc fusion) | 2260 | 1.22 |  |  |  |  |  |  | 0.0006 | 4260 | 0.35

Now from value to substance:

BAFF IC50 (pM) [1] [pM] | BAFF IC50 (ΔWT) (fold of WT TACI (68-110)-Fc) [1] | IC50 (nM) APRIL (recombinant human APRIL) [nM] | IC50 APRIL (Δ TACI 30-110) (fold of TACI 30-110) (recombinant human APRIL) | IC50 APRIL (Δ TACI 30-110-Fc) (fold of TACI 30-110-Fc) (recombinant human APRIL) | IC50 (nM) BAFF [1] [nM] | IC50 BAFF (Δ TACI 30-110) (fold of TACI 30-110) [1] | IC50 BAFF (Δ TACI 30-110-Fc) (fold of TACI 30-110-Fc) [1] | IC50 (read off the curve): blockade of human BAFF signalling via TACI (NF-κB luciferase reporter, Jurkat/NF-κB/TACI cells) [2] [µM] | APRIL IC50 (pM) (recombinant human APRIL) | APRIL IC50 (ΔWT) (fold of WT TACI (68-110)-Fc) (recombinant human APRIL) | Substance
53200 | 28.7 |  |  |  |  |  |  |  |  |  | BAFF-R ECD (from UniProt Q96RJ3 1-78) (receptor)
7740 | 4.17 | 4320 | 1 | 1 | 4490 | 1 | 1 |  |  |  | TACI 30-110-Fc (Fc fusion)
1830 | 0.99 |  |  |  |  |  |  | 0.0006 | 8380 | 0.68 | TACI vTD-Fc A101D (SEQ ID NO: 23) (Fc fusion)
1950 | 1.05 |  |  |  |  |  |  |  | 33600 | 2.72 | TACI vTD-Fc A101D, Y102D (SEQ ID NO: 189) (Fc fusion)
1640 | 0.88 |  |  |  |  |  |  |  | 176 | 0.01 | TACI vTD-Fc F78Y (SEQ ID NO: 183) (Fc fusion)
1540 | 0.83 |  |  |  |  |  |  |  | 159 | 0.01 | TACI vTD-Fc K77E (SEQ ID NO: 32) (Fc fusion)
